According to PMC11234873 (Chemical Science, 2024):

Test: High-throughput protein phase separation
Format: physicochemical
Details: 25 μM Hsp90α; 96 LLPS-inducing conditions, sum of averaged grades of 15 subzones

In the case of “Hsp90α: full-length human Hsp90α (UniProt P07900), N-terminal 6×-His tag, expressed in E. coli”, the “phase separation score (PPS score)” value is reported as 3.1.
